The experiment addresses insoluble type I collagen (UniProt P02453). Briefly: co-sedimentation; batch binding to 5 mg insoluble substrate; protein 15 µg/ml in 80 µl buffer A (50 mM Tris-HCl, 10 mM CaCl2, 3 M NaCl, pH 8.0), 0°C, 60 min; supernatant after centrifugation on SDS-PAGE.

Here are results for 1 substance from publication PMC3158780.

The substance “isolated CTE domain of SptA (CTE*) (domain or fragment)” gave a percent bound of 50%.
